Test results from patent publication US20050055741, “Plant transcriptional repressor, proteic nuclear factors binding thereto, and uses thereof” (published 2005).

Columns and labels:
[1] = target: T1, SEBF (affinity purified, 29 and 28 kD bands) (Solanum tuberosum); test: southwestern; 29 and 28 kD bands each bind; details: tags: none; label: 32P
T1 chain: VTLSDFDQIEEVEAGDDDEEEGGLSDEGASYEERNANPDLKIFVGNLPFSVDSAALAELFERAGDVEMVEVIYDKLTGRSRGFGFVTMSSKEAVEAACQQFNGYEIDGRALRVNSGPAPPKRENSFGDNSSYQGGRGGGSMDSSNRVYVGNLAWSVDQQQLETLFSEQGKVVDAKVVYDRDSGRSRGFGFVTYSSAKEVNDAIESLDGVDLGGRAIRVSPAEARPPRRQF
Experimental: FIG. 4 is a picture of a gel showing the purification of SEBF. Coomassie staining of proteins from each step of the purification of SEBF (lanes 1 through 4). The crude nuclear extract (Crude; lane 1) was loaded on a Q-Sepharose™ column. SEBF was eluted at 400 mM NaCl (Q-seph; lane 2) before two rounds of affinity purification (Aff.1, Aff.2; lane 3, lane 4). […] Arrows indicate the two purified bands. Molecular weight markers are indicated on the left.
Both of these proteins were subjected to N-terminal sequence analysis.

SEBF (recombinant) [2] = target: T2, SEBF (recombinant) (Solanum tuberosum); test: EMSA; 10 ng recombinant SEBF; details: tags: GST fusion expressed in E. coli BL21; GST cleaved with thrombin; label: 32P
T2 chain: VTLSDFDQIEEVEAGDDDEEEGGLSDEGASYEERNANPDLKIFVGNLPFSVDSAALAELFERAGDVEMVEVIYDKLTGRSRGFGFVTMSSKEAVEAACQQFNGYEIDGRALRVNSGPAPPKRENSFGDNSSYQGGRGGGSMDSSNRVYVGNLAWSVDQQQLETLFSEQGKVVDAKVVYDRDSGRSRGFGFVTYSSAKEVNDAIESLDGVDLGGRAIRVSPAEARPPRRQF
Source text: (§1) FIGS. 2A, 2B, 2C and 2D show mutational analysis of potato silencing element (SE). FIG. 2A: Schematic representation of the reporter constructs and mutant oligonucleotides used in this study. Reporter constructs contain the PR-10a promoter region from −135 to +136 fused to the bacterial gene uidA encoding […] (GUS). The position of the elicitor response element (ERE), the silencing element (SE) and the TATA box are shown (TATA). The transcriptional start site is indicated by an arrow. The common sequence between the wild-type (WT; SEQ ID NO:45) and mutant oligonucleotides m1 to m5 (SEQ ID NOs:1 to 5) is indicated by dashed lines, and mutated nucleotides are represented by lowercase letters. FIG. 2B: EMSA studies using 10 μg of crude potato tuber nuclear preparation and 20,000 CPM of the ³²P labeled single-stranded CS oligonucleotides presented in FIG. 2A. FIG. 2C: EMSA studies using 10 ng of purified recombinant SEBF and 20,000 CPM of the ³²P labeled single-stranded CS oligonucleotides presented in FIG. 2A. FIG. 2D: The sequence from −52 to −27 of the PR-10a promoter fused to the uidA gene was replaced by the sequences presented in FIG. 2A. The resulting plasmids were electroporated in potato leaf protoplasts and the GUS activity was measured. The histogram represents fold activity to wild type (WT=1). […]

SEBF (recombinant) [3] = target: T2, SEBF (recombinant); test: EMSA; specificity stated similar to native SEBF; details: tags: GST fusion expressed in E. coli BL21; GST cleaved with thrombin; label: 32P
Source text: as §1

SEBF (recombinant) [4] = target: T2, SEBF (recombinant); test: EMSA; specificity similar to native SEBF; details: tags: GST fusion expressed in E. coli BL21; GST cleaved with thrombin; label: 32P
Source text: as §1

Binder: TCTAGACTGTCACTTGTTTTTTTTA (ssDNA) [PR-10a SE coding strand WT]
- binding result [1]: binds
- binding result (SEBF (recombinant) [2]): binds

Binder: CATGGACTGTCACTTGTTTTTTTTA (ssDNA) [SE m2]
- binding result (SEBF (recombinant) [3]): binds

Binder: TCTAGATCGAATTCCGCTCGACCGG (ssDNA) [SE m1]
- binding result (SEBF (recombinant) [4]): no binding
